Source: paper PMC5787804 (2017)
Blank lines part the entries; values can stand above or below the binder they belong to. Where no end group is shown, it is not given here. Side-chain parts run from the residue outwards. silicon chip = not defined here

Assays:
[1] = molecular target: Orai1-L2 (aa 136–186, mutation C143G) (human, UniProt Q96D31 136-186, C143G, conjugated to amino-functionalized AFM cantilever tips via a flexible NHS-PEG18-acetal cross-linker); assay: AFM single-molecule force spectroscopy
Chain of Orai1-L2 (aa 136–186, mutation C143G) (Q96D31 136-186 C143G): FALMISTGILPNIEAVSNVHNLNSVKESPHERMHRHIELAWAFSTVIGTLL

[2] = molecular target: Orai3-L2 (aa 111–161, mutation C118G) (human, UniProt Q9BRQ5 111-161, C118G, conjugated to amino-functionalized AFM cantilever tips via a flexible NHS-PEG18-acetal cross-linker); assay: AFM single-molecule force spectroscopy

koff [1]: 1.9 s⁻¹
koff [2]: 0.23 s⁻¹
B1: Orai1-NT 70–91 (peptide)
peptide: SMQALSWRKLYLSRAKLKASSRC
modifications: added C-terminal cysteine for site-specific coupling; immobilized on silicon chips via NHS-PEG27-maleimide linkers

koff [1]: 0.13 s⁻¹
koff [2]: 0.09 s⁻¹
Binder: LYLSRAKLKASSRC([NHS‑PEG27‑maleimide-silicon chip]) (reading uncertain) [Orai1-NT 79–91]
